From FireProtDB (doi:10.1016/j.jmb.2003.08.024)

B1: Ribonuclease, P00648 (parent)
chain: MMKMEGIALKKRLSWISVCLLVLVSAAGMLFSTAAKTETSSHKAHTEAQVINTFDGVADYLQTYHKLPDNYITKSEAQALGWVASKGNLADVAPGKSIGGDIFSNREGKLPGKSGRTWREADINYTSGFRNSDRILYSSDWLIYKTTDHYQTFTKIR

Variants of: B1
Conditions: Bacillus amyloliquefaciens, GdnHCl, Hydrogen exchange, HCl 27.5 mM, reversible: yes, structure 1BNI, whole UniProt chain shown

Row | Variant | ddG of mutation (higher = less stable) (pH 6.8, 30 °C, Imidazole 50 mM) [kcal/mol] | denaturant m value (pH 6.8, 30 °C, Imidazole 50 mM) [kcal/mol/M] | ddG of mutation (higher = less stable) (pH 7.5, 25 °C, Imidazole 50 mM) [kcal/mol] | denaturant m value (pH 7.5, 25 °C, Imidazole 50 mM) [kcal/mol/M] | ddG of mutation (higher = less stable) (pH 7.6, 37 °C, Imidazole 50 mM) [kcal/mol] | denaturant m value (pH 7.6, 37 °C, Imidazole 50 mM) [kcal/mol/M] | ddG of mutation (higher = less stable) (pH 7.9, 37 °C, Tris 50 mM) [kcal/mol] | denaturant m value (pH 7.9, 37 °C, Tris 50 mM) [kcal/mol/M]
1 | MMKMEGIALKKRLSWISVCLLVLVSAAGMLFSTAAKTETSSHKAHTEAQVINTFDGVADYLQTYHKLPDNYITKSEAQALGWVASKGNLADVAPGKSIGGDIFSAREGKLPGKSGRTWREADINYTSGFRNSDRILYSSDWLIYKTTDHYQTFTKIR [N105A] | 1.8 | 4.91 |  |  |  |  |  | 
2 | MMKMEGIALKKRLSWISVCLLVLVSAAGMLFSTAAKTETSSHKAHTEAQVINTFDGVADYLQTYHKLPDNYITKSEAQALGWVASKGNLADVAPGKSIGGDIFSNREGKLPGKSGRTWREADINYTSGFRNCDRILYSSDWLIYKTTDCYQTFTKIR [S132C H149C] |  |  | -4.3 | 4.91 | -4.6 | 4.91 | -4.5 | 4.91
3 | MMKMEGIALKKRLSWISVCLLVLVSAAGMLFSTAAKTETSSHKAHTEAQVINTFDGVADYLQTYHKLPDNYITKSEAQALGWVASKGNLCDVAPGKSIGGDIFSNREGKLPGKSGRTWREADINYTCGFRNSDRILYSSDWLIYKTTDHYQTFTKIR [A90C S127C] |  |  | -1.9 | 4.91 | -1.9 | 4.91 | -1.8 | 4.91
4 | MMKMEGIALKKRLSWISVCLLVLVSAAGMLFSTAAKTETSSHKAHTEAQVINTFDGVADYLQTYHKLPDNYITKSEAQALGWVASKGNLADVAPGKSIGGDIFSNREGKLPGKSGRTWREADINYTSGFRNSDRILYASDWLIYKTTDHYQTFTKIR [S138A] | 1.8 | 4.91 |  |  |  |  |  | 
